Test results as given in patent US20230126400A1 (Alector, published 2023).

T1: human MS4A4A ECL1 peptide (amino acid residues 86-98) (human)
T1 construct: synthetic peptide
T1 peptide: CMASNTYGSNPIS

T2: human MS4A4A ECL2 peptide (amino acid residues 159-179), free (human)
T2 construct: synthetic peptide; also called huMS4A4A-ELC2 free-peptide
T2 peptide: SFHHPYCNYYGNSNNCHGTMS

T3: human MS4A6A ECL2 peptide (amino acid residues 138-185) (human)
T3 peptide: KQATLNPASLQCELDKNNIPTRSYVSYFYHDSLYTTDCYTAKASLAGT

T4: human MS4A6A ECL1 peptide (amino acid residues 68-85) (human)
T4 peptide: SASFSPNFTQVTSTLLNS

T5: BSA-conjugated human MS4A4A ECL2 peptide (amino acid residues 159-179) (human, conjugated to BSA (site not stated))
T5 construct: also called MS4A4A-ECL2 BSA conjugated peptide; BSA-MS4A4A-ELC2 peptide
T5 peptide: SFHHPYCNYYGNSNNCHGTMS


Experiments:
[1] = target: T6, human MS4A4A (human, UniProt Q96JQ5 1-239); assay: FACS, K562 cells, supernatant
Description: (§1) Positive clones identified in Example 22 above were expanded and then rescreened for specificity against U937, K562, and/or 300.19 cells stably overexpressing human MS4A4A or cyno MS4A4A and parental U937, K562, and/or 300.19 cells. These experiments were performed using supernatants from hybridoma clones which had undergone further expansion after initial selection. Briefly, stably transfected cells were labeled with LIVE/DEAD Fixable Aqua Dead Cell Stain Kit (ThermoFisher Scientific Cat#L34957) on ice for 30 minutes. […] 2×10⁵ cells were aliquoted per well in 96-well U-bottom plates and incubated with 50 μl of culture supernatant on ice for 30 minutes. […] Following this secondary incubation, the cells were again washed twice with ice-cold FACS buffer and resuspended in a final volume of 200 μl of FACS buffer. Analysis was performed on a FACS Canto system (BD Biosciences), with gates drawn to exclude dead (Aqua-positive) cells.
(§2) The APC ratio was calculated for each antibody as follows. […] For cell lines overexpressing human MS4A4A (h4A) or cyno MS4A4A (cy4A), the ration was calculated by comparing the binding measured to the binding observed on the corresponding parental cell lines.

[2] = target: T6, human MS4A4A; assay: FACS, 300.19 cells, supernatant
Description: as §1, §2

[3] = target: T1, human MS4A4A ECL1 peptide (amino acid …); assay: peptide ELISA
Method in brief: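 Free or BSA-conjugated peptides were coated at 2 or 10 […] in 0.05M carbonate buffer, pH 9.6, overnight at 4 °C, then blocked 1 h with PBS+0.5% BSA+0.05% Tween20. Antibodies were bound 30 min at room temperature with shaking. TMB was developed 5-10 min, stopped, and absorbance read at 650 nm.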

[4] = target: T2, human MS4A4A ECL2 peptide (amino acid …); assay: peptide ELISA, supernatant
[5] = target: T6, human MS4A4A; assay: FACS, U937 cells, supernatant
Description: as §1, §2

[6] = target: T7, cynomolgus (cyno) MS4A4A (cynomolgus); assay: FACS, 300.19 cells, supernatant
T7 construct: also called cy4A; Cyno 4A
Description: as §1, §2

[7] = target: T2, human MS4A4A ECL2 peptide (amino acid …); assay: peptide ELISA
[8] = target: T7, cynomolgus (cyno) MS4A4A; assay: FACS, stably transfected cells
[9] = target: T6, human MS4A4A; assay: FACS, U937 cells, supernatant; U937 cells overexpressing h4A
Description: as §1, §2

[10] = target: T6, human MS4A4A; assay: FACS, K562 cells, supernatant; K562 cells overexpressing h4A
Description: as §1, §2

[11] = target: T6, human MS4A4A; assay: FACS, HEK293, supernatant
[12] = target: T7, cynomolgus (cyno) MS4A4A; assay: FACS, HEK293, supernatant
[13] = target: T1, human MS4A4A ECL1 peptide (amino acid …); assay: array SPR
[14] = target: T3, human MS4A6A ECL2 peptide (amino acid …); assay: array SPR
[15] = target: T4, human MS4A6A ECL1 peptide (amino acid …); assay: array SPR
[16] = target: T7, cynomolgus (cyno) MS4A4A; assay: flow cytometry (anti-mouse IgG Fc-APC), hybridoma supernatant on 300.19 cells transfected with cyno MS4A4A
Description: Flow cytometry was performed as follows. Briefly, transiently-transfected cells were labeled with LIVE/DEAD Fixable Aqua Dead Cell Stain Kit (ThermoFisher Scientific Cat#L34957) on ice for 30 minutes. […] 2×10⁵ cells were aliquoted per well in 96-well U-bottom plates and incubated with 50 μl of culture supernatant on ice for 30 minutes. […] Following this secondary incubation, the cells were again washed twice with ice-cold FACS buffer and resuspended in a final volume of 200 μl of FACS buffer. Analysis was performed on a FACS Canto system (BD Biosciences), with gates drawn to exclude dead (Aqua-positive) cells.

[17] = target: T5, BSA-conjugated human MS4A4A ECL2 …; assay: ELISA, supernatant
[18] = target: T5, BSA-conjugated human MS4A4A ECL2 …; assay: ELISA, hybridoma supernatant

fold increase in MFI [1] [fold]	fold increase in MFI [2] [fold]	binding result [3]	binding result [4]	fold increase in MFI [5] [fold]	binding result [8]	fold increase in MFI [10] [fold]	binding result [13]	binding result [14]	binding result [15]	Binder	other results
> 2	> 2	no binding	no binding	> 2						anti-MS4A4A antibody 4A-220 (antibody, V domains shown, murine hybridoma antibody) VH: EVQLQQSGPDLVKPGASVKISCKASGYSFNGYFMNWVMQSHGESLEWIGRINPYNGDTLYNQKFKGKATLTVDKSSSTGHMELRSLASEDSAVYYCARVKGYDYDGAMDYWGQGTSVTVSS VL: DIVMTQSPDSLAVSLGERATINCRSSQSLLQSGNQKSSLAWYQQKPGQPPKLLIFWARTRQSGVPDRFSGSGSGTDFTLTISSVQAEDVAVYYCQQYSDTPFTFGQGTKLEIK	
> 2	> 2	no binding		> 2						anti-MS4A4A antibody 4A-214 (antibody, V domains shown, murine hybridoma antibody) VH: EVKLEESGGGLVQPGRSMKLSCVASGFTFSNYWMNWVRQSPEKGLEWVAEIRLKSNNYATHYAESVKGRFTISRDDSKSSVYLQMNNLRAEDTGIYYCSSMIIVDYWGQGTTVTVSS VL: DIVLTQSPASLTVSLGQRATISCRASQSVSSSTYSYLHWYQQRPGQPPKLLIKYASNLESGVPARFSGSGSGTVFTLNIHPVEEEDTATYYCQHSWEIPLTFGAGTKLEMK	fold increase in MFI [6]: > 2 fold; binding result [7]: binds
		no binding	no binding		binds	> 2				anti-MS4A4A antibody 4A-206 (murine) (antibody, V domains shown, murine hybridoma antibody) VH: EVKLVESGGGLVKPGGSLKLSCAASGFTFSSYTMSWVRQTPEKRLEWVASLSSGGSTYYPDSVKGRFTISRDNARNILYLQMSSLRSEDTAMYYCAKDYYVSSYRWYFDVWGAGTTVTVSS VL: DIQMTQITSSLSASLGDRVTISCRASQDISNYLNWYQQKPDGTVKLLIYYTSNLHSGVPSRFSGSGSGTDYSLTISNLEQEDIATYFCQQGKSFPWTFGGGTKLEIK	fold increase in MFI [9]: > 2 fold
							no binding (tested: 2000 nM)	no binding (tested: 2000 nM)	no binding (tested: 2000 nM)	anti-MS4A4A antibody 4A-23 (antibody, V domains shown, murine hybridoma antibody) VH: EVQLQQSGPELVKPGASVKMSCQASGYTFTDYNIHWVKQSHGKSLKWIGYINPNNDDTTFNQKFKGKATLTVNKSSSTAYMELRSLTSEDSAVYYCARSPYCYFDVWGTGTTVTVSS VL: DIQMTQSPSSLSASLGGKVTITCKASQDINKYIVWYQHKPGKGPRLLINYTSTLQPGIPSRFSGGGSGGDYSFSISNLEPEDIATYYCLQYDNLWTFGGGTKLEIK	Human 4A:parental cell ratio [11]: 1.96 ratio; Cyno 4A:parental cell ratio [12]: 1.22 ratio; binding result [16]: no binding; binding result [17]: binds
		no binding	no binding		binds	> 2				anti-MS4A4A antibody 4A-213 (murine) (antibody, V domains shown, murine hybridoma antibody) VH: QVQLKESGPGLVAPSQSLSITCTVSGFSLTSYGVHWVRQPPGKGLEWLGVIWVGGSTNYNSALMSRLSISKDNSKSQVFLKMNSLQTDDTAMYYCARAVYYYGSSYYFDYWGQGTTVTVSS VL: not shown	
							no binding (tested: 2000 nM)	no binding (tested: 2000 nM)	no binding (tested: 2000 nM)	anti-MS4A4A antibody 4A-24 (antibody, V domains shown, murine hybridoma antibody) VH: EVKLEESGGGLVQPGGSMKLSCAASGFTFSDAWMDWVRQSPEKGLEWVAEIRDNADNHPTYYAESVKGRFTISRDDSKSSVYLQMNSLRAEDTGIYYCTSDYYGSHWGQGTTLTVSS VL: not shown	binding result [18]: no binding
